Assay results published in publication PMC314469, “Protein Interaction Networks by Proteome Peptide Scanning” (PLoS Biology, 2004).

T1: Rvs167 SH3 (RV167_YEAST), P39743
T1 chain: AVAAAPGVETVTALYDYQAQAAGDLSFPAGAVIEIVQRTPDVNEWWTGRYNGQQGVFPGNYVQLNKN

T2: Boi1 SH3 (BOI1_YEAST), P38041
T2 chain: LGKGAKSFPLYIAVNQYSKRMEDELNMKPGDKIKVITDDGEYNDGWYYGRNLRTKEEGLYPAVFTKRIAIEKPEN

T3: Yfr024 SH3 (LSB3_YEAST), P43603
T3 chain: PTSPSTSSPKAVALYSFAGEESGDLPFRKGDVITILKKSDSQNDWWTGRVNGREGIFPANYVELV

T4: Yhr016c SH3 (YSC84_YEAST), P32793
T4 chain: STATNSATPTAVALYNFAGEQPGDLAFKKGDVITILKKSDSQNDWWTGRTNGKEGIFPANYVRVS

T5: Boi2 SH3 (BOI2_YEAST), P39969
T5 chain: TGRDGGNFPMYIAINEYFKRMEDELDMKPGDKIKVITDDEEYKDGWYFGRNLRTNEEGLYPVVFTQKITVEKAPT


Experiments:
Assay in all cases: SPOT array
[1] = target: T1, Rvs167 SH3 (RV167_YEAST), P39743
[2] = target: T2, Boi1 SH3 (BOI1_YEAST), P38041
[3] = target: T3, Yfr024 SH3 (LSB3_YEAST), P43603
[4] = target: T4, Yhr016c SH3 (YSC84_YEAST), P32793
[5] = target: T5, Boi2 SH3 (BOI2_YEAST), P39969

normalised SPOT signal, Boehringer light units (BLU); mean over the file's lines of this peptide [1] | normalised SPOT signal, Boehringer light units (BLU); mean over the file's lines of this peptide [2] | normalised SPOT signal, Boehringer light units (BLU); mean over the file's lines of this peptide [3] | normalised SPOT signal, Boehringer light units (BLU); mean over the file's lines of this peptide [4] | normalised SPOT signal, Boehringer light units (BLU); mean over the file's lines of this peptide [5] | Binder
6410 | 0 | 46300 | 62400 | 54.8 | EEKPLLPTRPNKAE [YPR171W 203-216]
26300 | 619 | 31200 | 72200 | 53.3 | EEHPPLPARRKSEE [YOR042W 80-93]
5.7 | 84 | 44.3 | 24.5 | 17.6 | EEHPSSPGKKQITY [YLR238W 11-24]
32.9 | 56.5 | 7910 | 139 | 83.5 | EKFPKLPHKLVHML [YKR024C 336-349]
59.1 | 58.8 | 60.4 | 181 | 21.4 | EHKPVSPDKIGTFT [YDR443C 81-94]
63.9 | 364 | 2720 | 34.7 | 21.3 | EILPVKPTKKSSKK [YCL014W 808-821]
23100 | 102 | 55000 | 93000 | 20.3 | EAAPQLPSRSSAAP [YCR088W 505-518]

The remaining lines, values behind:

Binder | normalised SPOT signal, Boehringer light units (BLU); mean over the file's lines of this peptide [1] | normalised SPOT signal, Boehringer light units (BLU); mean over the file's lines of this peptide [2] | normalised SPOT signal, Boehringer light units (BLU); mean over the file's lines of this peptide [3] | normalised SPOT signal, Boehringer light units (BLU); mean over the file's lines of this peptide [4] | normalised SPOT signal, Boehringer light units (BLU); mean over the file's lines of this peptide [5]
EDTPDLPQKTGIRK [YJR137C 1229-1242] | 14.6 | 24.7 | 5620 | 100 | 18
EESPVKPLKITQKA [YLL021W 583-596] | 51.1 | 59.6 | 290 | 51.3 | 40.1
EILPQAPAKKVFES [YDR444W 379-392] | 65.2 | 34.7 | 244 | 12.5 | 21.5
EFIPPDPTKVTEFE [YNL025C 151-164] | 16.4 | 98 | 26.8 | 53.3 | 39.5
DYQPLSPPRELDPD [YAR014C 249-262] | 322 | 122 | 506 | 313 | 8.8
EKLPAIPRKFIVTE [YMR296C 278-291] | 41.4 | 26.8 | 667 | 208 | 17.5
EKGPRMPSRGRPRP [YPR171W 144-157] | 72.6 | 394 | 5120 | 1840 | 161
ESHPELPNKDVKLD [YGL125W 158-171] | 25.4 | 128 | 139 | 75.4 | 22.1
EANPDNPKKLDLKA [YER166W 783-796] | 45.6 | 79.1 | 257 | 247 | 7.6
EIPPPLPPKIMVHS [YIL156W 528-541] | 135 | 121 | 41400 | 14500 | 15.5
EAPPAKPSRSDIID [YOR066W 225-238] | 31.9 | 70.5 | 3400 | 2010 | 54.9
EIAPLIPKKPALRK [YDR080W 597-610] | 80 | 110 | 5120 | 0 | 90.8
EFSPTYPSKLFVPR [YJR110W 189-202] | 69.9 | 53.2 | 796 | 143 | 33.3
EIAPSLPSRNSIPA [YCR088W 471-484] | 18700 | 92.9 | 35400 | 40900 | 51.6
EGKPLFPGKDHVHQ [YLR113W 212-225] | 38.5 | 89.1 | 5.2 | 91.1 | 11
